This note sets out measurements from US20110263827A1 (AbbVie / Abbott, published 2011).

The target of test [1] is T1, EGFR (UniProt P00533 25-645, limits assumed, biotinylated).
T1 construct: ELISA antigen; construct not described
The experiment in a line: direct bind ELISA, N-term VD.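 Also: antibody or DVD-Ig preparations bound to immobilized target antigen on ELISA plates, 1 h at room temperature, TMB detection read as absorbance at 450 nm.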

Test [2] has as its target T2, IGF1R (UniProt P08069 31-932, limits assumed, biotinylated).
T2 construct: ELISA antigen
Kind of test: direct bind ELISA, C-term VD.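 Also: ELISA with antibody or DVD-Ig preparations applied to target antigen-coated plates for 1 h at room temperature, TMB colour development, absorbance read at 450 nm.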 Background: ELISA stands for enzyme-linked immunosorbent assay.

Test [3] concerns the target T2, IGF1R. Kind of test: direct bind ELISA, N-term VD.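 Also: antibody or DVD-Ig preparations bound to immobilized target antigen on ELISA plates, 1 h at room temperature, TMB detection read as absorbance at 450 nm.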
Test [4] deals with T1, EGFR. The experiment in a line: direct bind ELISA, C-term VD.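 Also: ELISA with antibody or DVD-Ig preparations applied to target antigen-coated plates for 1 h at room temperature, TMB colour development, absorbance read at 450 nm.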
The target of test [5] is RON (UniProt Q04912 25-571, biotinylated). The experiment in a line: direct bind ELISA, N-term VD.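 Also: antibody or DVD-Ig preparations bound to immobilized target antigen on ELISA plates, 1 h at room temperature, TMB detection read as absorbance at 450 nm.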

In general, EC50 refers to the midpoint of the concentration-response curve. High values mean lower potency in that assay, low ones higher potency in that assay.

B1: DVD775 (bispecific antibody)
VH: QVQLQESGPGLVKPSQTLSLTCTVSGYSISSDFAWNWIRQPPGKGLEWMGYISYSGNTRYQPSLKSRITISRDTSKNQFFLKLNSVTAADTATYYCVTAGRGFPYWGQGTLVTVSSASTKGPSVFPLAPEVQLLESGGGLVQPGGSLRLSCTASGFTFSSYAMNWVRQAPGKGLEWVSAISGSGGTTFYADSVKGRFTISRDNSRTTLYLQMNSLRAEDTAVYYCAKDLGWSDSYYYYYGMDVWGQGTTVTVSS
VL: DIQMTQSPSSMSVSVGDRVTITCHSSQDINSNIGWLQQKPGKSFKGLIYHGTNLDDGVPSRFSGSGSGTDYTLTISSLQPEDFATYYCVQYAQFPWTFGGGTKLEIKRTVAAPSVFIFPPDIQMTQFPSSLSASVGDRVTITCRASQGIRNDLGWYQQKPGKAPKRLIYAASRLHRGVPSRFSGSGSGTEFTLTISSLQPEDFATYYCLQHNSYPCSFGQGTKLEIKR
notes: DVD-Ig; HC L, LC L; variable parts only
Take B1: the figures for the EC50 in test [1] and in test [2] were 3.59 nM and 2.77 nM, respectively.

B2: DVD835 (bispecific antibody)
VH: QVQLQESGPGLVKPSQTLSLTCTVSGYSISSDFAWNWIRQPPGKGLEWMGYISYSGNTRYQPSLKSRITISRDTSKNQFFLKLNSVTAADTATYYCVTAGRGFPYWGQGTLVTVSSASTKGPEVQLLESGGGLVQPGGSLRLSCTASGFTFSSYAMNWVRQAPGKGLEWVSAISGSGGTTFYADSVKGRFTISRDNSRTTLYLQMNSLRAEDTAVYYCAKDLGWSDSYYYYYGMDVWGQGTTVTVSS
VL: DIQMTQSPSSMSVSVGDRVTITCHSSQDINSNIGWLQQKPGKSFKGLIYHGTNLDDGVPSRFSGSGSGTDYTLTISSLQPEDFATYYCVQYAQFPWTFGGGTKLEIKRTVAAPSVFIFPPDIQMTQFPSSLSASVGDRVTITCRASQGIRNDLGWYQQKPGKAPKRLIYAASRLHRGVPSRFSGSGSGTEFTLTISSLQPEDFATYYCLQHNSYPCSFGQGTKLEIKR
notes: DVD-Ig; HC S, LC L; variable parts only
Regarding B2, the EC50 was 2.42 nM in test [1] and 3.47 nM in test [2].

B3: DVD805 (bispecific antibody)
VH: QVQLQESGPGLVKPSQTLSLTCTVSGYSISSDFAWNWIRQPPGKGLEWMGYISYSGNTRYQPSLKSRITISRDTSKNQFFLKLNSVTAADTATYYCVTAGRGFPYWGQGTLVTVSSASTKGPSVFPLAPEVQLLESGGGLVQPGGSLRLSCTASGFTFSSYAMNWVRQAPGKGLEWVSAISGSGGTTFYADSVKGRFTISRDNSRTTLYLQMNSLRAEDTAVYYCAKDLGWSDSYYYYYGMDVWGQGTTVTVSS
VL: DIQMTQSPSSMSVSVGDRVTITCHSSQDINSNIGWLQQKPGKSFKGLIYHGTNLDDGVPSRFSGSGSGTDYTLTISSLQPEDFATYYCVQYAQFPWTFGGGTKLEIKRTVAAPDIQMTQFPSSLSASVGDRVTITCRASQGIRNDLGWYQQKPGKAPKRLIYAASRLHRGVPSRFSGSGSGTEFTLTISSLQPEDFATYYCLQHNSYPCSFGQGTKLEIKR
notes: DVD-Ig; HC L, LC S; variable parts only
As to B3, the 50% effective concentration (EC50) was 0.48 nM in test [1] and 0.99 nM in test [2].

B4: DVD334 (bispecific antibody)
VH: EVQLLESGGGLVQPGGSLRLSCTASGFTFSSYAMNWVRQAPGKGLEWVSAISGSGGTTFYADSVKGRFTISRDNSRTTLYLQMNSLRAEDTAVYYCAKDLGWSDSYYYYYGMDVWGQGTTVTVSSASTKGPQVQLQESGPGLVKPSQTLSLTCTVSGYSISSDFAWNWIRQPPGKGLEWMGYISYSGNTRYQPSLKSRITISRDTSKNQFFLKLNSVTAADTATYYCVTAGRGFPYWGQGTLVTVSS
VL: DIQMTQFPSSLSASVGDRVTITCRASQGIRNDLGWYQQKPGKAPKRLIYAASRLHRGVPSRFSGSGSGTEFTLTISSLQPEDFATYYCLQHNSYPCSFGQGTKLEIKRTVAAPDIQMTQSPSSMSVSVGDRVTITCHSSQDINSNIGWLQQKPGKSFKGLIYHGTNLDDGVPSRFSGSGSGTDYTLTISSLQPEDFATYYCVQYAQFPWTFGGGTKLEIKR
notes: DVD-Ig; HC S, LC S; variable parts only
On to B4, for which the EC50 in test [3] stood at 0.19 nM; in test [4], 137 nM.

B5: DVD333 (bispecific antibody)
VH: QVQLQESGPGLVKPSQTLSLTCTVSGYSISSDFAWNWIRQPPGKGLEWMGYISYSGNTRYQPSLKSRITISRDTSKNQFFLKLNSVTAADTATYYCVTAGRGFPYWGQGTLVTVSSASTKGPEVQLLESGGGLVQPGGSLRLSCTASGFTFSSYAMNWVRQAPGKGLEWVSAISGSGGTTFYADSVKGRFTISRDNSRTTLYLQMNSLRAEDTAVYYCAKDLGWSDSYYYYYGMDVWGQGTTVTVSS
VL: DIQMTQSPSSMSVSVGDRVTITCHSSQDINSNIGWLQQKPGKSFKGLIYHGTNLDDGVPSRFSGSGSGTDYTLTISSLQPEDFATYYCVQYAQFPWTFGGGTKLEIKRTVAAPDIQMTQFPSSLSASVGDRVTITCRASQGIRNDLGWYQQKPGKAPKRLIYAASRLHRGVPSRFSGSGSGTEFTLTISSLQPEDFATYYCLQHNSYPCSFGQGTKLEIKR
notes: as for B4
For B5, the EC50 in test [1] was 3.55 nM; in test [2], 78.6 nM.

B6: DVD326 (bispecific antibody)
VH: EVQLVQSGGGLVKPGGSLRLSCAASGFTFSSYAMHWVRQAPGKGLEWVAVISYDGSNKYYADSVKGRFTISRDNSKNTLYLQMNSLRAEDTAVYYCARFSGWPNNYYYYGMDVWGQGTTVTVSSASTKGPQVQLQESGPGLVKPSQTLSLTCTVSGYSISSDFAWNWIRQPPGKGLEWMGYISYSGNTRYQPSLKSRITISRDTSKNQFFLKLNSVTAADTATYYCVTAGRGFPYWGQGTLVTVSS
VL: DVVMTQSPLSLPVTPGEPASISCRSSQSLLHSNGFNYVDWYLQKPGQSPHLLIYFGSYRASGVPDRFSGSGSGTDFTLKISRVEAEDVGVYYCMQALQTPPWTFGQGTKVEIRRTVAAPDIQMTQSPSSMSVSVGDRVTITCHSSQDINSNIGWLQQKPGKSFKGLIYHGTNLDDGVPSRFSGSGSGTDYTLTISSLQPEDFATYYCVQYAQFPWTFGGGTKLEIKR
notes: as for B4
Take B6: the EC50 stood at 0.18 nM in test [5] and 29.9 nM in test [4].

B7: DVD828 (bispecific antibody)
VH: EVQLVQSGGGLVKPGGSLRLSCAASGFTFSSYAMHWVRQAPGKGLEWVAVISYDGSNKYYADSVKGRFTISRDNSKNTLYLQMNSLRAEDTAVYYCARFSGWPNNYYYYGMDVWGQGTTVTVSSASTKGPQVQLQESGPGLVKPSQTLSLTCTVSGYSISSDFAWNWIRQPPGKGLEWMGYISYSGNTRYQPSLKSRITISRDTSKNQFFLKLNSVTAADTATYYCVTAGRGFPYWGQGTLVTVSS
VL: DVVMTQSPLSLPVTPGEPASISCRSSQSLLHSNGFNYVDWYLQKPGQSPHLLIYFGSYRASGVPDRFSGSGSGTDFTLKISRVEAEDVGVYYCMQALQTPPWTFGQGTKVEIRRTVAAPSVFIFPPDIQMTQSPSSMSVSVGDRVTITCHSSQDINSNIGWLQQKPGKSFKGLIYHGTNLDDGVPSRFSGSGSGTDYTLTISSLQPEDFATYYCVQYAQFPWTFGGGTKLEIKR
notes: as for B2
As for B7, the results for the EC50 in test [5] and in test [4] were 0.2 nM and 19.8 nM, respectively.

B8: DVD798 (bispecific antibody)
VH: EVQLVQSGGGLVKPGGSLRLSCAASGFTFSSYAMHWVRQAPGKGLEWVAVISYDGSNKYYADSVKGRFTISRDNSKNTLYLQMNSLRAEDTAVYYCARFSGWPNNYYYYGMDVWGQGTTVTVSSASTKGPSVFPLAPQVQLQESGPGLVKPSQTLSLTCTVSGYSISSDFAWNWIRQPPGKGLEWMGYISYSGNTRYQPSLKSRITISRDTSKNQFFLKLNSVTAADTATYYCVTAGRGFPYWGQGTLVTVSS
VL: DVVMTQSPLSLPVTPGEPASISCRSSQSLLHSNGFNYVDWYLQKPGQSPHLLIYFGSYRASGVPDRFSGSGSGTDFTLKISRVEAEDVGVYYCMQALQTPPWTFGQGTKVEIRRTVAAPDIQMTQSPSSMSVSVGDRVTITCHSSQDINSNIGWLQQKPGKSFKGLIYHGTNLDDGVPSRFSGSGSGTDYTLTISSLQPEDFATYYCVQYAQFPWTFGGGTKLEIKR
notes: as for B3
Regarding B8, the figures for the EC50 in test [5] and in test [4] were 0.18 nM and 17.9 nM, respectively.

B9: DVD776 (bispecific antibody)
VH: EVQLLESGGGLVQPGGSLRLSCTASGFTFSSYAMNWVRQAPGKGLEWVSAISGSGGTTFYADSVKGRFTISRDNSRTTLYLQMNSLRAEDTAVYYCAKDLGWSDSYYYYYGMDVWGQGTTVTVSSASTKGPSVFPLAPQVQLQESGPGLVKPSQTLSLTCTVSGYSISSDFAWNWIRQPPGKGLEWMGYISYSGNTRYQPSLKSRITISRDTSKNQFFLKLNSVTAADTATYYCVTAGRGFPYWGQGTLVTVSS
VL: DIQMTQFPSSLSASVGDRVTITCRASQGIRNDLGWYQQKPGKAPKRLIYAASRLHRGVPSRFSGSGSGTEFTLTISSLQPEDFATYYCLQHNSYPCSFGQGTKLEIKRTVAAPSVFIFPPDIQMTQSPSSMSVSVGDRVTITCHSSQDINSNIGWLQQKPGKSFKGLIYHGTNLDDGVPSRFSGSGSGTDYTLTISSLQPEDFATYYCVQYAQFPWTFGGGTKLEIKR
notes: as for B1
B9: the EC50 was found to be 0.83 nM in test [3] and 286 nM in test [4].

B10: DVD836 (bispecific antibody)
VH: EVQLLESGGGLVQPGGSLRLSCTASGFTFSSYAMNWVRQAPGKGLEWVSAISGSGGTTFYADSVKGRFTISRDNSRTTLYLQMNSLRAEDTAVYYCAKDLGWSDSYYYYYGMDVWGQGTTVTVSSASTKGPQVQLQESGPGLVKPSQTLSLTCTVSGYSISSDFAWNWIRQPPGKGLEWMGYISYSGNTRYQPSLKSRITISRDTSKNQFFLKLNSVTAADTATYYCVTAGRGFPYWGQGTLVTVSS
VL: DIQMTQFPSSLSASVGDRVTITCRASQGIRNDLGWYQQKPGKAPKRLIYAASRLHRGVPSRFSGSGSGTEFTLTISSLQPEDFATYYCLQHNSYPCSFGQGTKLEIKRTVAAPSVFIFPPDIQMTQSPSSMSVSVGDRVTITCHSSQDINSNIGWLQQKPGKSFKGLIYHGTNLDDGVPSRFSGSGSGTDYTLTISSLQPEDFATYYCVQYAQFPWTFGGGTKLEIKR
notes: as for B2
For B10, the EC50 in test [3] is 0.51 nM; in test [4], 56.8 nM.

B11: DVD806 (bispecific antibody)
VH: EVQLLESGGGLVQPGGSLRLSCTASGFTFSSYAMNWVRQAPGKGLEWVSAISGSGGTTFYADSVKGRFTISRDNSRTTLYLQMNSLRAEDTAVYYCAKDLGWSDSYYYYYGMDVWGQGTTVTVSSASTKGPSVFPLAPQVQLQESGPGLVKPSQTLSLTCTVSGYSISSDFAWNWIRQPPGKGLEWMGYISYSGNTRYQPSLKSRITISRDTSKNQFFLKLNSVTAADTATYYCVTAGRGFPYWGQGTLVTVSS
VL: DIQMTQFPSSLSASVGDRVTITCRASQGIRNDLGWYQQKPGKAPKRLIYAASRLHRGVPSRFSGSGSGTEFTLTISSLQPEDFATYYCLQHNSYPCSFGQGTKLEIKRTVAAPDIQMTQSPSSMSVSVGDRVTITCHSSQDINSNIGWLQQKPGKSFKGLIYHGTNLDDGVPSRFSGSGSGTDYTLTISSLQPEDFATYYCVQYAQFPWTFGGGTKLEIKR
notes: as for B3
For B11, the results for the EC50 in test [3] and in test [4] were 0.4 nM and 53.8 nM, respectively.
